For orientation: IC50 means the concentration at which inhibition is half-maximal.

The values that follow come from patent US20140087995A1 (published 2014).

Assay [1] deals with T1, rat calcitonin receptor (rat, UniProt P32214 25-516).
T1 construct: whole, on cells; membranes of transiently transfected BHK tk'ts 13 cells (Assay VIII); also called rCTR; rat calcitonin (a) receptor
T1 sequence (looked up): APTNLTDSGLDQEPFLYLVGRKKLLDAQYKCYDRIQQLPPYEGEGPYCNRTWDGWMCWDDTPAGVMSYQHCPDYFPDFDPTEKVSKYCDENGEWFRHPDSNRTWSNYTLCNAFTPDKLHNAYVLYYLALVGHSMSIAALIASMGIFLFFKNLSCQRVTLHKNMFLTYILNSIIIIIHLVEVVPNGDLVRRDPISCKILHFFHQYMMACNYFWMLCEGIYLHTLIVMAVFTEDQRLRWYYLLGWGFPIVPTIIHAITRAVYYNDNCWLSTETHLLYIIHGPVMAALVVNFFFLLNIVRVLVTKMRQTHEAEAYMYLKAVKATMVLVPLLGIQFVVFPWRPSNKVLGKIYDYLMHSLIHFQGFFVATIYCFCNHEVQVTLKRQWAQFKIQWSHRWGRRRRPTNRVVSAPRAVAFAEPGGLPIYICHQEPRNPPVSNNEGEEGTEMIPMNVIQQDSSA
The experiment in a line: IC50 on rat calcitonin receptor divided by IC50 on rat amylin receptor (SPA competition).

Assay [2] concerns the target T2, human calcitonin receptor (human, UniProt P30988 25-474).
T2 construct: whole, on cells; membranes of stably transfected BHK cells (Assay VII); also called hCTR; hCT
T2 sequence (looked up): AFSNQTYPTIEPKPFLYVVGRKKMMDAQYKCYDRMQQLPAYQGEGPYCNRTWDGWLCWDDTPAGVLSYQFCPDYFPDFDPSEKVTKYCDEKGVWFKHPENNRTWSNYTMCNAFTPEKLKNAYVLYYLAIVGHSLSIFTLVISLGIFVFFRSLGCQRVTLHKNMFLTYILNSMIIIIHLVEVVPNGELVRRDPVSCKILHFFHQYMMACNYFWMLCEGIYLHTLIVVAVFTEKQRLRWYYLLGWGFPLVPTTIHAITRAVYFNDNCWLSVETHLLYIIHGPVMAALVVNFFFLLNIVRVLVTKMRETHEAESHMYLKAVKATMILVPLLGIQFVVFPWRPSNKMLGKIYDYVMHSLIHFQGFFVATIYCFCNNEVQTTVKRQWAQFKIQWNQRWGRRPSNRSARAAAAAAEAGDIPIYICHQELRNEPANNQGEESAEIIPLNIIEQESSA
The assay is described as follows: IC50 on human calcitonin receptor divided by IC50 on human amylin receptor (SPA competition). Here is the method:
The resulting pellet was resuspended, homogenized and centrifuged (20.000 rpm, 15 min) in a buffer containing 20 mM Na-HEPES and 0.1 mM EDTA (pH 7.4, buffer 2). The resulting pellet was resuspended in buffer 2 and protein concentration was measured (BCA protein Assay, Pierce). The homogenate was kept cold during the whole procedure. The membranes were kept at −80° C. until use. The assay was performed in a 384 well Optiplate (PerkinElmer) in a total volume of 40 ul. Membranes were mixed with SPA beads. Final concentration of membranes 35 ng/μL final and SPA beads was 0.05 mg/well. Test-compounds were dissolved in DMSO and further diluted in assay buffer (50 mM Hepes, pH 7.4, 1 mM CaCl2, 5 mM MgCl₂, 0.1% OA and 0.02% Tween20). […] The final mixture was incubated with shaking at 400 rpm for 120 min at 25° C. prior to centrifugation (1500 rpm, 10 min). Samples were analyzed on TopCounter™ (Packard). The IC₅₀ was calculated using (one site binding competition analysis) GraphPad Prism5 as a measure of receptor affinity.
Membranes were prepared in the following way; the cells were rinsed with PBS and incubated with Versene for approximately 5 min before harvesting. The cells were flushed with PBS and the cell-suspension was centrifuged for 5 min at 1000 rpm. Cells were homogenized (Ultrathurrax) in a buffer containing 20 mM Na-HEPES and 10 mM EDTA (pH 7.4) and centrifuged at 20.000 rpm for 15 min. The resulting pellet was resuspended, homogenized and centrifuged (20.000 rpm, 15 min) in a buffer containing 20 mM Na-HEPES and 0.1 mM EDTA (pH 7.4, buffer 2). The resulting pellet was resuspended in buffer 2 and protein concentration was measured (BCA protein Assay, Pierce). The homogenate was kept cold during the whole procedure. The membranes were kept at −80° C. until use. Assay was performed in a 384 well Optiplate (PerkinElmer) in a total volume of 40 ul. Membranes were mixed with SPA beads.

In assay [3] the target is T1, rat calcitonin receptor. The assay is described as follows: SPA competition with 125I-calcitonin, membranes of BHK cells with rat calcitonin receptor (Assay VIII).
Assay [4] addresses T3, rat amylin receptor (rat calcitonin receptor + rat RAMP 3) (rat, UniProt P32214 25-516; Q9JJ73 23-147).
T3 construct: whole, on cells; membranes of transiently transfected BHK tk'ts 13 cells (Assay VI); also called rAmylin-R; rat amylin 3(a) receptor
T3 sequence (looked up) 1: T1 sequence (looked up)
T3 sequence (looked up) 2: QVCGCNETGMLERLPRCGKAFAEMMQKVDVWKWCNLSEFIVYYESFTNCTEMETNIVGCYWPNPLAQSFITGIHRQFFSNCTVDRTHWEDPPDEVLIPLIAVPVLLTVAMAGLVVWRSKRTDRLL
The assay is described as follows: SPA competition with 125I-rat amylin, membranes of BHK cells with rat calcitonin receptor + rat RAMP3 (Assay VI).

Substitutions are numbered along the chain they refer to.

B1: N^α1-[(4S)-4-carboxy-4-(19-carboxynonadecanoylamino)butanoyl]-[Arg17,Pro21,Pro27]-h-amylin (peptide)
peptide: KCNTATCATQRLANFLRHSSPNFGAIPSSTNVGSNTY
modifications: C20 diacid-gGlu on the alpha amino group of the N-terminal residue (Lys 1); disulfide bridge between the two Cys residues; C-terminal amide
notes: analogue of human amylin; also called compound 21
On to B1, for which the “Ratio rCT/rAmylin binding” value with rat calcitonin receptor [1] was 18.8. The “Ratio hCT/hAmylin binding” value in assay [2] amounted to 24.4. Also, the values for the IC50 (with rat calcitonin receptor [3]; in assay [4]) were 27.9 nM and 1.48 nM, respectively.

B2: N^α1-[2-[2-[2-[[2-[2-[2-[[(4S)-4-carboxy-4-(19-carboxynonadecanoylamino)butanoyl]amino]ethoxy]ethoxy]acetyl]amino]ethoxy]ethoxy]acetyl]-[Glu14,Arg17,Pro21,Pro27 … (peptide)
peptide: B1 peptide with N14E
modifications: C20 diacid-gGlu-2xOEG on the alpha amino group of the N-terminal residue (Lys 1); disulfide bridge between the two Cys residues; C-terminal amide
notes: analogue of human amylin; also called compound 19
As for B2, the “Ratio rCT/rAmylin binding” value with rat calcitonin receptor [1] was determined as 93.6. In addition, the “Ratio hCT/hAmylin binding” value in assay [2] is 36.7. Also, the IC50 turned out to be 95.6 nM with rat calcitonin receptor [3] and 1.02 nM in assay [4].

B3: N^α1-[(4S)-4-carboxy-4-(19-carboxynonadecanoylamino)butanoyl]-[Arg17,Pro21,Pro27,His34]-h-amylin (peptide)
peptide: B1 peptide with S34H
modifications: C20 diacid-gGlu on the alpha amino group of the N-terminal residue (Lys 1); disulfide bridge between the two Cys residues; C-terminal amide
notes: analogue of human amylin; also called compound 40
B3: the “Ratio rCT/rAmylin binding” value with rat calcitonin receptor [1] turned out to be 46.2. Also, in assay [2], the “Ratio hCT/hAmylin binding” value is 31.1. Moreover, the values for the IC50 (in the assay with rat calcitonin receptor [3]; in assay [4]) were 69.2 nM and 1.5 nM, respectively.
